Data taken from the RNAGym collection of RNA variant scans (doi:10.1073/pnas.2313332121).

B1: TPR t1 (parent)
chain: GACCAAUCUGCCCUCAGAGCUCGAGAACAUCUUCGGAUGCAGAGGAGGCAGGCUUCGGUGGCGCGAUAGCGCCAACGUCCUCAACCUCCAAUGCAUCCCACCACAUGAUGAUGCCUGAAGAGCCUUGGUUUUUUG

Variants of: B1
Assay: polymerase ribozyme fitness, log enrichment relative to wild type (log ratio); higher = more active; in vitro selection for triplet polymerase activity
Procedure, shortened: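 Each subunit of a heterodimeric triplet polymerase ribozyme was represented by a PCR-built, transcribed mutant library that underwent triplicate single-round in vitro selection with frozen incubation at −7 °C. Extended constructs were recovered by gel excision, streptavidin-bead capture and RT-PCR, and Illumina sequencing of input and output libraries kept genotypes with ≥10 input reads and ≥1 read per output. Fitness is the logarithm of genotype enrichment relative to wild-type enrichment, from inverse-variance-weighted replicate averages, with a logarithm base of 2.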

Variant	polymerase ribozyme fitness (log ratio)
A18U A27G C72A C115A G120C	-3.08
G17C A91C	-4.65
G17U G63C C73U	-1.67
A18C U92C C97U	-4.36
G17U C70U U78G	-3.17
A18C G19U G48A G58C C62G C124A	-5.33
G17A G71A	-4.07
G19A C70G C85U C114G	-7.51
A16U U21G C114U	-4.99
A18U C124A U126A	-1.36
G19U A119G G128A	-3.71
A18G U87G U109A	-2.3
A18G C53A A100C A103G C114A	-5.14
A16U G61C	-2.41
A16U G61U	-1.11
A18G C123U U132A	-2.14
A18G G44A C72G	-5.19
G19A G48U C49U G69U G93U	-4.49
G17U C88A	-2.77
G17U A105C U109A C124A	-5.37
G17U U130C	-1.79
G17U U130A	-3.3
A18G U92C C104U G117U C123A	-2.56
G17C G61A G120C	-1.39

Variant	polymerase ribozyme fitness (log ratio)
A18U C22A G113A	-3.79
G19U A74G	-3.02
G17A C20A C31G G36U A46C C124A	-7.12
G17U C40A G42A C49A	-6.46
G17U C72U	-3.14
A18C C49U C72G	-3.75
A18U G57U C94G U112G	-5.68
A18G C49A C64U C79U G120C G128U	-3.3
A18G A41C A43G G57U	-4.59
A18C G19U	-5.8
A18C A43U A121G	0.81
A18C C22U C73A A121U	-5.5
A18U U59A A68G A91U G120U	-6.77
A18U A90C G122A	-2.49
G19U A24U A41C A43U U92G C101G G110U	-6.86
A18U C94U	-3.18
A18U G48U G52U G69U C79G	-2.76
A18C C20U C88G G110C	-4.72
A18C U87G C89U	-2.03
G19C G42U U92A	-2.69
G19C G63C A111G C115G	-5.11
G17A C40G G60A A83C A84C A121C	-3.61
G17U C89U	-1.77
A18G G48A U116G	-3.25

Variant	polymerase ribozyme fitness (log ratio)
G19C C20U C40A G61A U87A U112A	-5.56
G17C C72U	-4.11
A18U G128C	-4.63
G17U C56G G113A	-5.78
G19A U78G A84U C115U A121C	-5.73
G17A C20G A121G	-4.27
G19U A43U A74U	-3.22
G17A G63A C82U	-5.43
A18U U38G G71A C89A U129A	-6.64
A16U G135U	-1.8
A18C A95C G128U	-5.8
A18U A27G C53A G71C C85G	-8.07
G17C A37U U54G U112C	-3.41
G17C A26G A37U C53G G57A A91G G93U A111U U129G	-6.27
A18C C88G G120A	-2.81
G19U A50C C98U G110A A121G	-6.95
A16U G58U C123A	-2.18
A18G C124A	-0.403
A18U C34U G61C A74C A100C G107U G110C	-7.86
A18U G48U	-2.49
A18G C123U	-1.44
G19A G71C C115U G128U	-5.92
G19A G63A U92A	-4.56
G17U G48C	-2.61

Variant	polymerase ribozyme fitness (log ratio)
G19A A43U C49U U59A C124U	-1.73
A18G G35A G69A G117A	-5.21
G19A A43U C101A U129G	-4.15
A18U C114G	-4.17
A18U C114A	-2.02
A18C	-2.11
A18G	-1.83
A18U	-2.13
G17C A18C	-4.12
A18U G71C C104A	-6.56
G17U A43U G48U A74G	-3.04
A16U G48C U59C U126C	-2.91
A18C C34A C99A C123A U126A	-5.25
G19A G36U	-3.84
A18C A29G G107U C124G U125C	-7.59
G17A G63C U109A C115A	-6.25
A16U G60U U87G G122A U126C	-3.42
A18U C28U A50U C98A	-7.62
A18G C53A C72U C85G	-4.61
A18C C115U	-2.17
G17A G42U U129A	-4.5
A16U G117A	-2.22
A16U G117U	-2.04
A18U G61C U112A G122U	-6.15

Variant	polymerase ribozyme fitness (log ratio)
A18C G63C	-4
G17U C124A	-1.01
G17C A41G A91U	-4.31
G17A G36U C56U	-4.9
G17A G71A C72U C94G C123G	-5.54
G17U A74U	-3.16
G17A C72U	-2.29
G17A C72G	-3.28
A18G G19U C73A C79U	-1.75
A18G A46G C72U	-4.38
G19A G77U	-2.96
G19A C64U	-2.88
A18U G42U G63C A66G C123U	-4.29
G19A C34A C89A	-6.24
G17A G128C	-5.29
G17U U109A	-6.56
A18U A74C A90U A121C U129A	-1.29
A18U C40U A46C C82A C86A C124G	-4.93
G17A A43U G120A	-3.38
G17A A43G G47U G120C G135C	-2.39
A18C G19A C40U C49U A50U C89U C124U	-5.69
A18G G113C	-1.3
G17U A43C U59G C62G A75G C115U C124G	-5.23
A18U G39U G48U C73U A84C	-4.34

Variant	polymerase ribozyme fitness (log ratio)
A18U A29G G42C G110U U112G	-5.42
A18U G52A C72A C73A U112A	-3.87
G19A G60C A75U A90C C98U C114A	-3.78
A18U G113C	-3.57
A16U G45A G61U C82G	-1.81
G17C C62G C64U A68U U81G C114G	-6.46
G17A G48C C124A G128A	-3.31
G19C U130C	-2
G17A G93U	-4.76
A18C C114G	-2.59
G17U A24G A26G U112A	-6.66
G17C C49A C82U C114U	-5.49
G17C G36A C114G G127A	-5.69
G17U C114U U125A	-5.53
A18G C64U G69C U78G G113C	-3.05
A18U C20G G61A	-6.8
A18C C40G	-4.09
G19U A37U	-3.17
A18U U21C G36A C72U C114U	-4.3
A16U G48C G120A	-1.64
G17A U21A G39C C56U	-4.02
G17U G60U C88U C97U G120A	-2.79
A18U C70A G113A G122A	-4.58
G17U G117C	-5.24

Variant	polymerase ribozyme fitness (log ratio)
G17U C73G C124G G128C	-2.67
A18C G128C	-5.12
A18G G61U C94G G113U	-3.32
A18C C20U G110C	-6.35
G17C C79U	-4.69
G17C C64U	-4.22
G17C A121G U133A	-1.73
G17U A18U G35C C72G G77U A103U U112G	-6.95
A18C C20U C53U	-1.72
A16U G57U	-1.91
A18U C73U U96A	-3.25
G19C C72G	-3.09
A18C G71U U78G	-4.63
A18U G42A C53G C85U C89A	-3.31
A18U U54C A83G U109A	-6.59
G17C G61U G93U C114A G127U	-6
A18C G39A	-3.32
A18C C72U C73U U106A C124U	-1.79
G19U A43C	-3.38
G19A C56U	-2.34
G19A A43U C49U C124U	-2.19
A18C C72A	-2.45
A18C C72G	-3.9
